Experimental data: the nanobody polyreactivity screen of Harvey et al. (2022)

Assay: yeast display, Sf9 membrane polyspecificity reagent, FACS + sequencing; frameworks hold sequencing errors
Procedure, shortened: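 Nanobodies came from a synthetic yeast display library in Saccharomyces cerevisiae BJ5465, induced with galactose for 36–48 hours and stained for 1 hour at 4 °C with 10% biotinylated, detergent-solubilized Sf9 membrane reagent. Cells were enriched on streptavidin microbeads and then FACS-sorted, with low and high (top ~1%) gates set on anti-HA fluorescence for expression and streptavidin fluorescence for reagent binding. Each polyreactivity label reflects the gate a clone came from. Genes were amplified by colony PCR, sequenced by MiSeq 2 × 250 and filtered by CDR length.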

| Sequence | polyreactivity (PSR sort gate) |
| --- | --- |
| QVQLVESGGGLVQAGGSLRLSCAASGLTFKVYDMGGYRQAPGKERELVAAIWSDGDTYYADSVKGRFTISRDNAKNTVYLQMNSLKPEDTAVYYCAADPVWTVHFVFGNKYDYWGQGTQVTVSS | low polyreactivity |
| QVQLVESGGGLVQAGGSLRISCAASGRIFGYYGMGWSRQAPGKERELVAAITSNAGRTYYADSVKGRFTISRDNSKNTVYLQMNSLKPEDTAVYYCAATSKGSYGRQGYDYWGQGTQVTVSS | low polyreactivity |
| QVQLVESGGGLVQAGGSLRLSCAASGFIFSRYAMGWYRQAPGKERELVAAISSRGGSTYYADSVKGRFTISRDNAKNTVYLQMNSLKPEDTAVYYCNVDPRYSLTPPMDYWGQGTQVTVSS | high polyreactivity |
| QVHLVESGGGLVQAGGSLRLRCAASGRIFPSNAMGWYRQAPWKERELVAGITWRRDSTYYADSVKGRFTISRDKAKNTVYLQMNSLKPEDTAVYYCAATFRYTKLYYWGQGTQVTVSS | low polyreactivity |
| QVQLVESGGGLVQAGGSLLLSCAASGSIFGKNAMGWYRQAPGKERELVAAISRSGARTYYADSVKGRFTISRDNAKNTVYLQMNSLKPEDTAVYDCAAVYWWAYRGTYSSLYKHFVYWGQGSQVTVSS | high polyreactivity |
| QVQLVESGGGLVQAGGSLRLSCAASGRILTLNAMGWYRPAPGKERELVASIRSTGRTYYADSVKWRFTISRDNAMNTVYLQMNSLKPEDTAVYYCAADTRYRYGAYPYYEYDYWGQGTQVTVSS | low polyreactivity |
| QVQLVEAGGGLVQAGGSLRLSCAASGGTFTAYAMGWYRQAPGKERELVAAISASGDSTYYADSVKGRFTISRDNAKNTVYLQMNSLKPEDTAVYYCNADWYRTGRRGSDYWGQGTQVTVSS | low polyreactivity |
| QVQLVESGGGLVQAGGSLRLSCAASGRTFKYNAMGWYRQAPGKERELVAAISSDDSTNYADSVKGRFTISRDNAKNTVYLQMNSLKPEDTAVYYCAARYGYSKWPDRVQAYKHDYWGQGTQVTVSS | low polyreactivity |
| QVQLVESGGGLVQAGGSLRLSCAASGFIFRYYAMGWYRQAPGKEREFVASINWNGGSTSYADSVKGRFTISRDNAKNTVYLQMNSLKPEDTAVSYCAADFQYAIHTDMDYWGHGTQVTVSS | high polyreactivity |
| QVQPVESGGGLVQAGGSLRLSCAASASTFYYYAMGWSRQAPGKERELVASITTGGGSTYYADSVKGRFTISRDNAKKTVYLQMNSLNPEDTAVYYCNAGRYGSNLEYWGQGTQVTVSS | low polyreactivity |
| QVQLVESGGGLVQAGGSLRLSCAASGFTFKGYTMGWYRQAPGKERELVAGISRRGGSTYYADSVKGRFTISRDNAKNTVYLQMNSLKPEDTAVYYCAADSQLTKFYYWGQGTQVTVSS | high polyreactivity |
| QVQLVESGGGLVQAGGSLRLSCAASGLTFYWYVMGWYRQAPGKERELVAAITGGGSSTYYADSVKGRFTISRDNAKNTVYLQMNSLKPEDTAVYYCAADYRGGIRYYRGAAYNYWGQGTQVTVSS | high polyreactivity |
| QVQLVESGGGLVQAGGSLRLSCAASGRIFYSNAMGWYRQAHGKERELVAAITGSGGRTHYADSVKGRFTISRDNAKNSVYLQMNSLKPEDTAVYYCAKDGYFPEFDYWGQGTQVTVSS | high polyreactivity |
| QVQLEESGGGLVQAGGSLRLSCAASGRIFVSNAMGWYRQAPGKERELVAAITDSGGSTYYADSVKGRFTISRDNAKNTVYLQMNSLKPEDTAVYYCATRTLFRYPNYGNNLWGYDYWGLGTQVTVSS | low polyreactivity |
| QVQLVESGGGLVQGGGSLRLRCAASGFNFDWYTMGWYRQAPGKERELVAAITIGGSTDYADSVKGRFTISRDNAKNTVYLQMNSLKREDTAVYYCNALWYLSGTWYDYWGQGTQVTVSS | low polyreactivity |
| QVQLVESGGGLVQAGGSLRLSSAASGSTLVIYAMGWYRQAPGIERQLVAAIDANTGSTYYADSVKGRFTISLDNAKNTDYLQMNSLKPEDTAVYYCNAQVYLPTAYDYWGQGTLVTVSS | low polyreactivity |
| QVQLVESGGGLVQAGGSLRLSCAASGFTFVYYVMGWYRQAPGKERELVAAITRRGGNTYYADSVKGRFTISRDNAKNTVYLQMNSLKPEDTAVYYCNAVLRYGHGPYQKGDYWGQGTQVTVSS | high polyreactivity |
| QVQLVESGGGLVQAGGSLRLSCAASGGTFSSYDMGWYRQAPGKERELVAAISWSGSSTDYADSVKGRFTISRDNAKNTVYLQMNSLKPEDTAVYYCNTDYWEITYSGVIWPEYDYWGQGTQVTVSS | low polyreactivity |
| QVQLVESGGGLVQAGGSLSLSCAASGRTFVKNTMGWYRQAPGKERELVAAISSSGGSTYYADSVKGRFTISRDNAKNTVYLQMNSLKPEDTAVYYCAVSYPYKHAGGWYAYNYWGQGTLVTVSS | high polyreactivity |
| QVQLVESGGRLVQAGGILRLSCAASGRSFYFYAMGWYRKAPGKERELVAAITRGDDTNYADSVKGRFTISRDNAKNTVNLQMNSLKPEDTAVYYFGYATEYDYWGQGTQVTVSS | low polyreactivity |
| QVQLVESGGGLVQAGGSLRLSCAASGYIFVKNAMGWYRQAPGKERELVAAISTRGGRTYYADSVKVRFTISRDNAKNTVSLQMNSLKPEDTAVYYCAAVHHTSYYDANSYGYWGQGTQVTVSS | high polyreactivity |
| QVQLVESGGGLVQAGGSLSLSCAASGLTFSWYTMGWYRPAPGKERELVAAISWSGVSTYYADSVMGRFTISRDNAKNTVYLQMNSLKPEDTAVYYCAAAKTGRGRGTTGYGYWGQGTQVTVSS | high polyreactivity |

| Sequence | polyreactivity (PSR sort gate) |
| --- | --- |
| QVQLVESGGGLVQAGGSLRLSCAASGITLKRYAMGWYRQAPGTERELVAAITTSGGSTYYADSVKGRFTISRDTAKNTVYLQMNSLKPEDTAVYYCNAEDYWGKYYYWGQGTQVTVSS | low polyreactivity |
| QVQLVESGGGLVQAGGSLRLSCAASGSTFKRYAMGWYRQAPGKERELVASISSGGSTNYADSVKGRFTISRDNAKNTVYLQMNSLKREDTAVYYCAVSYRSFRYYWERYYSWGQGTQVTLSS | high polyreactivity |
| QVQLEESGGGLVQAGGSLRLSCAASGRIFGAYAMGWYRQAPGKERELVAAITSRGGNTYYADSVKGRFTISRDNAKNTVYLQMNSLKPEDTAVYYCAARHDKRRQYYVGESAFDYWGQGTQVTVSS | low polyreactivity |
| QVQLVESGGGLVQAGGSLRLSCAASGSTFVDNAMGWYRQAPGKERELVADISSGGSTYYADSVKGRFTISRDNAKNTVYLQMNSLKPEDTAVYYCNAESFYWWHSYDYWGQGTQVTVSS | high polyreactivity |
| QVQLVESGGGLVQAGGSLRLSCAASGRIFRGYAMGWYRQAPGKERELVAAISGSGGSTYYADSVKGRFTISRDNAKNTVYLQMNSLKPEDTAVYYCNAGWYFYGETTDDYWGQGTQVTVSS | low polyreactivity |
| QDQLVESGGGLVQAGGSLPLSCAASGLTFDYYVMGGYRQAPGKERELVATISWSGDITYYADSVKGRFTISRDNAKNTVYLQMNSLKPEDTAVYYCAADPYSWREGGYWGQGTQVTVSS | low polyreactivity |
| QVQLVESGGGLVQAGGSLRLSCAASGRILARNAMGWYRQAPGKERELVAVISYSGGRTYYADSVKGRFTISRDNAKNTVYLQMNSLKPEDTAVYYCAASRSFQGNRYDYWGQGTQVTVSS | high polyreactivity |
| QGQLVESGGGLVQAGGSLRLSCAASGLTFSPNAMGWYRQEPGKERELVAAISSSGGRTNYADSVKGRFTISRDNAKNPVYLLMNSLKPEDTAVYYCFTNSFYEDDDWGQGTQVTVSS | high polyreactivity |
| QVQLVESGGGLFQAGGSLRLSCAASGLIFRPYAMAWSRQAPGTERELVAAIRGSGGRTYYADSVKGRFTISRDNEKNTVYLQMNSLKPEDTAVYYCAVDVGRHTGYYYWGQGTQVTVSS | high polyreactivity |
| QVQLVESGGGLVQAGGSLRLSCAASGRIFKSYVMGWYRQAPGKERELVAAISITGGSTYYADSVKGRFTISRDNAKNTVYLQMNSLKPEDTAVYYCAAGRSGQEDDYWGQGTQVTVSS | high polyreactivity |
| QVQLVESGGRLVQAGGSLSLSCAASGIILLHYAMGWYRQAPGKERELVAAISSSGGRTYYADSVKGRFTISRDTAKITFYLQLTSLKPEDTAVYYCNTLTRLVYDGMGYWGQGTQVTVSS | high polyreactivity |
| QVQLVESWGGLVQAGGSLRLSCAASGLTFETYVMGRYRQAPGKEREFVAAISSSGRTYYADSVKGRFTISRDNAKNTVYLQMNSLKPEDTAFYYCAARGREFGYWGQGTQVTVSS | high polyreactivity |
| QVQLVESGGGLVQAGGSLRLSCAASGSIFTNNAMGWYRQAPGKERELVAGISIRGSSTYADSVKGRFTISRDNAKNTVYLQMNSLKPEDTAVYDCAADAYLELDPEVDYWGQGTQVTVSS | low polyreactivity |
| QVQLVESGGGLVQAGGSLRLSCAASGRNFAKYAMGWYRQAPGKERELVAAINSSGGSTYYADSVKGRFTISRDNAKNTVYLQMNSLKPEDTAVYYCAALGIGSYRRYSGYDYWGQGTQVTVSS | low polyreactivity |
| QVQLEESGGGLVQAGGSLRLSCAASGYTFGLYAMGWYRQAPRKERELVAAISSDASTNYADSVKGRFTISRDNAKNTVYLQMNSLKPEDTAVYYCAAAVKRGYAQSFISDGYGYWGQGTQVTVSS | low polyreactivity |
| QVQLVESGGGLVQAGGSLRLSCAASGSIFLYNTMGWYRQAPGKERELVAAITSGGNTNYADSVKGRFTISRDNAKNTVYLQMNSLKPEDTAVYYCNVDLKAWLPDGGSVDYWGQGTQVTVSS | low polyreactivity |
| QVQLVESGGGLVQAGGSLRLSCAASGRIFRFYAMGWYRQAPGKETELVATINSGVGRTYYADSVKGRFTISRDNAKNTVYLQFNSLKPEDTAVYYCAAEKRSYPQSYYYWGQGTQVTVSS | high polyreactivity |
| QVQLVESGGGLVQAGGSLRLSCAASGRIFWYNAMGWYRQAPGKERELVAGITRSGGRTYYADSVKGRFTISRDNAKNTVYLQMNSLKPEDTAVYYCAAAPYARRDYEYWGQGTQVTVSS | high polyreactivity |
| QVQLVESGGGLVQAGGSLRLSCAASGRIFVYNAMGWYRQAPGKERELVAAITRGGSTYYADSVKGRFTISRDNAKNTVYLQMNSLKPEDTAVYYCASDYQRNDFRWYDYWGQGTQVTVSS | low polyreactivity |
| QVQLVESGGGLVQAGGSLRLSCAASGRIYGNAMGWYRQAPGKERELVAAISWSGGSTYYADSVKGRFTISRDNAKNTVYLQMNSLKPEDTAVYYCAATYPQGKYTYGRSYDYWGQGTQVTVSS | high polyreactivity |
| QVQLVESGGGLVQAGGSLRLSCAASGRIIGRYVMGWYRQAPGKERELVAAITRGGSTNYADSVKGRFTISRDNAKNTVYLQMNSLKPEDTAVYYCARAYSTVNRYSMYYWGQGTQVTVSS | high polyreactivity |
